The DeepSol protein solubility set

test: soluble on expression in E. coli; label from the status in PepcDB or PDB records

**Q.** Which “soluble on expression in E. coli” value does the source give for “MSLTTELGRVLVTGGAGFVGANLVTTLLDRGHWVRSFDRAPSLLPAHPQLEVLQGDITDADVCAAAVDGIDTIFHTAAIIELMGGASVTDEYRQRSFAVNVGGTENLLHAGQRAGVQRFVYTSSNSVVMGGQNIAGGDETLPYTDRFNDLYTETKVVAERFVLAQNGVDGMLTCAIRPSGIWGNGDQTMFRKLFESVLKGHVKVLVGRKSARLDNSYVHNLIHGFILAAAHLVPDGTAPGQAYFINDAEPINMFEFARPVLEACGQRWPKMRISGPAVRWVMTGWQRLHFRFGFPAPLLEPLAVERLYLDNYFSIAKARRDLGYEPLFTTQQALTECLPYYVSLFEQMKNEARAEKTAATVKEGHHHHHH” here?
**A.** The value was “soluble”.

**Q.** Which “soluble on expression in E. coli” value does the source give for “MSLTTETRSLYSQLPAIDRLLRDSSFLSLRDTYGHTRVVELLRQMLDEAREVIRGSQTLPAWCENWAQEVDARLTKEAQSALRPVINLTGTVLHTNLGRALQAEAAVEAVAQAMRSPVTLEYDLDDAGRGHRDRALAQLLCRITGAEDACIVNNNAAAVLLMLAATASGKEVVVSRGELVEIGGAFRIPDVMRQAGCTLHEVGTTNRTHANDYRQAVNENTALLMKVHTSNYSIQGFTKAIDEAELVALGKELDVPVVTDLGSGSLVDLSQYGLPKEPMPQELIAAGVSLVSFSGDKLLGGPQAGIIVGKKEMIARLQSHPLKRALRADKMTLAALEATLRLYLHPEALSEKLPTLRLLTRSAEVIQIQAQRLQAPLAAHYGAEFAVQVMPCLSQIGSGSLPVDRLPSAALTFTPHDGRGSHLESLAARWRELPVPVIGRIYDGRLWLDLRCLEDEQRFLEMLLKEGGSHHHHHH” here?
**A.** Its value is “soluble”.

**Q.** With “MSLTTHGKPVLVATDLSARTDRAVDRATQLAGEWGVRLIVLHAIEPDSRLHARPELANQAMREVLADPEADVDILPALDLAPTAIVEAAKSADCGLIVTGVARFNHVGDYFIGTAVDHVVRHATVPVLVVKQRPHNAYRTIVVATDYSSCSRLALLTAAEFFPDAAIHLVHAYHVPYEAWLRSDEVREDVTREAQRELDAFVLDPAIPANVRQRISAKLVYGETHTVLSSTAYELGADLLVLGTHGSGGYFAAVMGRMAESLLRCADIDTLVVREIGSTGSEGHHHHHH” as the sequence, how does the “soluble on expression in E. coli” value read?
**A.** The value was “soluble”.

**Q.** Which “soluble on expression in E. coli” value does the source give for “MSLTTIKEIAQKSGYSPATVSRLLNNDPNLSITADTKNKILEIANKLGYWKDHQEKEIKPTIALLYRTNHKEQLQDEYFTSLKQALVETVKQKSMKMKTFYNVKDLIENASLFQGFIGVGAAPIENAELLELHKVLPNGVFVDTNPAPELFDSIRPNLSLTVKNAIDLFIKNDCKTIGFIGGVGPKHDHIQENDPRAVAFAEYMKVRNKDTNYMFVSGPFSVENGYELGKEVVKECEDNLPDAFLIASDTLSVGVLQAFNEENVNVPKDTAILSINNSNVVKYVSPPLSSYNINQQEMIDLALTMLTNLIIQPDRAHIDVNMNTDLVVRKSFVPKGEGHHHHHH” here?
**A.** The value was “soluble”.

**Q.** For “MSLTTYEMARILEQLDESPEKVMYGKLLNELGNQSSERIRSAAKQVPLTVLRDLVYQFQQVIESRKGEQVETMAKELAKQGISAEELLNYLQKR”, which “soluble on expression in E. coli” value is on record?
**A.** Its value is “not soluble”.

**Q.** With “MSLVDLVTEAKSSGEGVTSPYSRTEHCENIHEYRCDTRVGVIGIDVSKEHLVTSKGRVRKFTNNEKGYEEILTMKPNIIVIEPTGVYSTRPCQYFKERGVKVLLVSLAMERKGRKGKENRFLRRRKTEGHHHHHH” as the sequence, how does the “soluble on expression in E. coli” value read?
**A.** The value was “not soluble”.

**Q.** For “MSLVKTRILIISDTHGSKPKPKSDNSPSTEDELNQEDVTKVITGWRDPLPEADVVIHCGDLTKRTTIPEFEQTFSVLRSIKAPLKLAIAGNHDTALDEEHWVNKYGGSKETIDKVKKIVREAETDGVKYLPEGVHEFTLANGALLKVYASPWTPAYGGWAFQYKNGHDFNIPPGMDVAVTHGPPRGILDFAGRAGTHAGCPQLLAAVARAKPKIHCFGHIHEAWGMHHVTWDGDEIDLARSQYRGLKGLRPNRVTQGKETARMTREKLIEMSKQRAVRLDLTQGINRSIAGKQTLFVNAAIMSIRYRPVQLPWIIDVDLKAREGHHHHHH”, which “soluble on expression in E. coli” value is on record?
**A.** The value was “soluble”.

**Q.** Which “soluble on expression in E. coli” value does the source give for “MSLVKYGVVGAGYFGAELARYMQKNDGAEITLLYDPDNAEAIAEELGAKVASSLDELVSSDEVDCVIVATPNNLHKEPVIKAAQHGKNVFCEKPIALSYQDCREMVDACKENNVTFMAGHIMNFFNGVHHAKELINQGVIGDVLYCHTARNGWEEQQPSVSWKKIREKSGGHLYHHIHELDCVQFLMGGMPETVTMTGGNVAHEGEHFGDEDDMIFVNMEFSNKRFALLEWGSAYRWGEHYVLIQGSKGAIRLDLFNCKGTLKLDGQESYFLIHESQEEDDDRTRIYHSTEMDGAIAYGKPGKRTPLWLSSVIDKEMRYLHEIMQGAPVSEEFAKLLTGEAALEAIATADACTQSMFEDRKVKLSEIVKEGHHHHHH” here?
**A.** Its value is “soluble”.

**Q.** For “MSLVPRIAVLGCGHWGGNHIRTLQSLRALAAVSDVDSDRAASFASLYGVDAVAPDDLFTRRDIDALVLALPPQFHTENVLRAVKNGKDVLVEKPIALDVVDAECQVQAAREYGRILMVGHILRFHPAFEKISELVENGELGDVCYIYSHRLGFGKFHTQSDALWDLAPHDLSMILALTGCEPSEVRGEGAAVIDQCSDFAHIHMAFPNGIRSHLFASRLSPYRERRLMVVGTKAMLVFDDMEPWSRKVAFHPFAVWKENQEWAFSTDELSYINIYEDLPLTCELKHFLHCIETRQSPRTNGDDALAILRILTAAGVNYQKEGHHHHHH”, which “soluble on expression in E. coli” value is on record?
**A.** The value was “soluble”.

**Q.** Which “soluble on expression in E. coli” value does the source give for “MSLVSLPGLPAMISEISKRNNLPTTAVEEALREALLKGYERFRRSQLMGHQFPEEYFNNFEVELDTEEEGFRVLSTKRIVEEVENSDQQISLKEVLEVAEEAQLGDEVVLDVTPEQKDFGRMAAIQTKQVLLQKLRDQQRKIIQEEFQDLEGTVLNARALRFERQSIIVAVQSSFGQPEVEAELPKREQLPNDNYRANSTFRVYLKRVREGSQRGPQLVVSRAAAGLVVDLFSVEVPEIEEEVVRIVAVAREAKPPSPSVGPRTKIAVDTLERDVDPVGACIGARGSRIHAVVNELRGEKIDVIRWSPDPATYIAQALSPARVDQVYLIHAEERHALVIVAEDQLSLAIGKEGQNVRLAARLTGWKIDIKDPETYARDKEAIEQSILERAAASAQARAEREAAEQEAQAKLEAEMAALEAEEAEELEETPEAIAEVEEEVEEWDQDQGPELGEEEELSLEHHHHHH” here?
**A.** Its value is “soluble”.

**Q.** For “MSLVYTEVPKSVATFMETITEKCGEAHQDWAKNFQAAFANTLLTTVKRQEDGTTFLLTGDIPAMWLRDSTAQVRPYLVIAKEDEDLAQMIAGLVKRQFRYICIDPYANAFNETDNHAGHQTDKTEMNGWIWERKYEIDSLCYPVQLAYLLYKNTGMTEQFNSDFVEGVKKILNVFTTEQDHAQSPYLFERDTWRQEDTLVEAGKGTPVGKTGMTWSGFRPSDDACQYGYLVPSNMFAVVILGYIQEIFSDVLEDATIGAIAKKLQEEIEEGIQTFGRTKNQNNETIYAYEVDGLGNASVMDDSNVPNLVAAPYLGYCSTEDEQYLTTRQTLLSKENPYFYEGKYAKGIGSSHTPENYVWPIALAMEGMTTKDKAEKERILDLLVATDAGTHLMHEGFDVDNPENYTREWFSWANMMFCELVMDYFDIRVEKEGGSHHHHHH”, which “soluble on expression in E. coli” value is on record?
**A.** The value was “soluble”.

**Q.** Which “soluble on expression in E. coli” value does the source give for “MSLWMYIHKIMKLSYKRVILTRELEDIKKDKPLFEREGFKVLELPLIQTKVLEFNLPDEEFDYIVFQSKKAVKIFLGKVNLKGNKKIVAVGKKTAEELEKLGYKADFIPENESAKGLIELFKRLPKGKVLIPRSKIGRTELIKFLKETSFEVFALDVYTTEYVFYTREELLEKLNKGDFIIFYSPSAVKAFFANLQMHKIPKDSLSLKFVAIGKTTKEELQKHSVKNVITSERPSTEDIVKKLKELARDLQKEGHHHHHH” here?
**A.** Its value is “soluble”.

**Q.** With “MSLYLMPKQDEIALLKQEEETVKATLRIKANKVAVLPQIQAQLDELKERYDFLLRQLPVQKELASMLASVNQLGLDSSLTFTRIDWGERESQEFLYRLPLNIELTGSYHDIGDFSQAIAKLPRIINFDDVDWQRVSQESSTLHFRVRAYTYQFKQEVDDEKEGHHHHHH” as the sequence, how does the “soluble on expression in E. coli” value read?
**A.** The value was “not soluble”.

**Q.** For “MSLYRDSKRKIIRDLQKQDIQYVEYGDTRTLIIPTDKYFMFSSPRLNEICYPGLNNVIRLLNFYPQSTIYVAGFTDNVGSRSHKRKLSQAQAETMMTFLWANGIAAKRLKAEGYGDKNAISDNAIIHGSAQNRRIEIQWFTSPAQPPQPQMAYVKEGHHHHHH”, which “soluble on expression in E. coli” value is on record?
**A.** The value was “soluble”.

**Q.** With “MSLYRIDFNKLRFLICDDNPHMRRILRTLLHSFGTREVYEAEDGATALEMYSHYSPDILITDWEMPIFDGLELAQMIRQPEAKGNPYAPIIMLTAHSEKRRVTLARDAGVTEFLAKPISSKGLYQRILNVVASPREGHHHHHH” as the sequence, how does the “soluble on expression in E. coli” value read?
**A.** The value was “not soluble”.
